# Reference: the DeepSol protein solubility set
# Assay: soluble on expression in E. coli; label from the status in PepcDB or PDB records
row,Sequence,soluble on expression in E. coli
1,MPGSTGKTRTAEAGETARRDQDSNSYVYGVVPADVELDPEARGVGDPPGRISLVRHGEIAALVSDIVLDRPLGRPDDLLAHQRLLDATAAEVPVLPFRFGAVVSDSEAVVEELLGPNHDDFLAALKELEGRAEYVVKGRYVERVVIGEVLAEDPEATRLREEIRGRPEEATWDARIQLGQMIGEAVAAKRDADTAALVDALAPKCAGVVVREPTHEQDAVHVAVLVDTDRQAEFEKILDEFGERWAGRIDLRLLGPLAPYDFVMAPGQGG,soluble
2,MKRVLIPGVILCGADVAQAVDDKNMYMHFFEEMTVYAPVPVPVNGNTHYTSESIERLPTGNGNISDLLRTNPAVRMDSTQSTSLNQGDIRPEKISIHGASPYQNAYLIDGISATNNLNPANESDASSATNISGMSQGYYLDVSLLDNVTLYDSFVPVEFGRFNGGVIDAKIKRFNADDSKVKLGYRTTRSDWLTSHIDENNKSAFNQGSSGSTYYSPDFKKNFYTLSFNQELADNFGVTAGLSRRQSDITRADYVSNDGIVAGRAQYKNVIDTALSKFTWFASDRFTHDLTLKYTGSSRDYNTSTFPQSDREMGNKSYGLAWDMDTQLAWAKLRTTVGWDHISDYTRHDHDIWYTELSCTYGDITGRCTRGGLGHISQAVDNYTFKTRLDWQKFAVGNVSHQPYFGAEYIYSDAWTERHNQSESYVINAAGKKTNHTIYHKGKGRLGIDNYTLYMADRISWRNVSLMPGVRYDYDNYLSNHNISPRFMTEWDIFANQTSMITAGYNRYYGGNILDMGLRDIRNSWTESVSGNKTLTRYQDLKTPYNDELAMGLQQKIGKNVIARANYVYREAHDQISKSSRTDSATKTTITEYNNDGKTKTHSFSLSFELAEPLHIRQVDINPQIVFSYIKSKGNLSLNNGYEESNTGDNQVVYNGNLVSYDSVPVADFNNPLKISLNMDFTHQPSGLVWANTLAWQEARKARIILGKTNAQYISEYSDYKQYVDEKLDSSLTWDTRLSWTPQFLQQQNLTISADILNVLDSKTAVDTTNTGVATYASGRTFWLDVSMKF,not soluble
3,MGSDKIHHHHHHKDAAYPRAEAQTLDLAQKAIAIRSVRGEGNRTIDVANLFRDALLKGGWQVGDIEVTPVDDTAYIIATWKGSDPSLKPVVISGHMDVVEAKREDWERDPFVPVVENGILYGRGASDMKFDGALALSTLIELRRQGFKPKRTIVIEFSGDEETTMKTSAIIAEKLKNAELVINVDGGGGTLDEATGKPLYWTWQGAEKTYADYRLEVTNPGGHSSAPRPDNAIVQLSQALVKVGAYRFKAEQNDITRGYFEKAAPFTDRPEIAAAMRAFAANPADEKALATLRADPSMVGKVGTTCVPTMLGGGHAENALPQRAFANINCRIFPGHTKEAIMAELAQVVGDPAVKISDVTEGSVASPASPLRPDLMKAVTRAMTKAYPKVPLIPSQASGASDSMWFRALGVPSYGLSPSFSKDSEDFSHGLNERTRLSNIRPGITYYLTLITDLTK,not soluble
4,MGSDKIHHHHHHMDFDTGRRIDRRAIPADAVEGTWTASDGHPIRRIDWPGHSEPDAPTAPRGSLLFLPGRGDFYEKYLESLDYWHCEGWRVTALDWRGQAGSGRLSSDPMTGHVPDFGLWLDDLGAFWTDWVRDTPGPHVVVGHSMGGHLVLRALAERRIDPAAVVLSAPMLGFLTPGPNRVLHRVAEFMCRIGDPERSAWKSSEKPGATTAARNTLLTHDEARYGDETHWKTVRPELAMGPGSWRWVERAYASMLVLDRPGLLEAVDVPVLLLAARHDGLVSWRAIERAARRLPRAQLMTWGREARHELLREADPVRDKVMHAIDDFLDRLAPPTGEDAPA,not soluble
5,MFKRVFNLRFISNFSRRPTSSPKLPKLIAITGGTSLGIAFFGKTEENKNLDSGNGQLIDGKPKNFDLIVRNSDELYDNYLIDNCYNILKKFENSNCSELLWRLARVVCEKGKLSKDQNQRKELILEAYGIVKKALDNEPKNGCFGAHKWYAILLDYVGEIEGNKSRIEKSFQVRKHLEKALSIFENDPTTWHILGVWHFSFANMGYATRMVAKAIFATPPASTYQEALHYFLKAEQISPGFYSTNTYYIGEVYEQLGQKAEALDAFKQSFKMPVVTSDDAVIHKKAYEKLKKYGVKDTEVV,not soluble
6,MITMKDIIKEGHPTLRKVAEPVPLPPSEEDKRILQSLLDYVKMSQDPELAAKYGLRPGIGLAAPQINVSKRMIAVHVTDENGTLYSYALFNPKIVSHSVQQCYLTTGEGCLSVDRDVPGYVLRYARITVTGTTLDGEEVTLRLKGLPAIVFQHEIDHLNGIMFYDRINPADPFQVPDGAIPIGR,soluble
7,MGSDKIHHHHHHVTALSIIKEAEHSLQMLFNELEEIAYTNQVRVIEAFHKHRVREYYFYPSTGYGYGDSGRDALEDIFADIFGTEDALVRSQVVSGTHAISACLFALLRPGDELISLTGSPYDTLCRIIGHEEKSPGTLIDKGIKYSEVDLDERGKPDLTAIAAAIKDTSRMVLIQRSRGYKTRPPVDLDTIAAITKLVKARNPATIVMLDNCYGEFTAVQEPGHYGVDIIAGSLIKNPGGGLIPSGGYIAGNQDLIEQLAFHLTAPGLGKELGASLLDKRIMYQGLFLAPHTVLQALKGAVLLAYVFEEHGYEVFPRWNEKRSDIVQAVKLRDAAEVLRFCQEVQNASPVDSDVTLEYGELPAYRDKIVMAAGTFVQGSSIELSCDAPLRSPHCVFLQGGLSYEHCRFLLQRLLDRFLLANA,not soluble
8,MLKFFAALLFAVATMAQAQDNTLHTDLPLDYLAQANVETPDRPLVIFIHGYGSNAADLFGLKEHLPAGFNYLSVQAPVELQADSYKWFTQKKGGTDYDGVTEDLKSSGKRLTDFITQATEKFRTQPGKVFLVGFSQGAMMSYEVALRQPTLVGGFAALSGRLLPVVKSEVNASDDLKALKVFIGHGVQDRQVAYASGPQAEATLKSLGLTPQFHGYEGLGHSINEAEVVDLANWLQQSSR,not soluble
9,GTGRSRLLEDFRNNRFPNLQLRDLIGHIVEFSQDQHGSRFIQQKLERATPAERQIVFNEILQAAYQLMTDVFGNYVIQKFFEFGSLDQKLALATRIRGHVLPLALQMYGCRVIQKALESISSDQQSEMVKELDGHVLKCVKDQNGNHVVQKCIECVQPQSLQFIIDAFKGQVFVLSTHPYGCRVIQRILEHCTAEQTLPILEELHQHTEQLVQDQYGNYVIQHVLEHGRPEDKSKIVSEIRGKVLALSQHKFASNVVEKCVTHASRAERALLIDEVCCQNDGPHSALYTMMKDQYANYVVQKMIDMAEPAQRKIIMHKIRPHITTLRKYTYGKHILAKLEKYYLKNSPDLG,soluble
10,MIDFNVDSARCTRCGQCVADCPSRIIVMATGEYPSIAPGKEFSCLRCEHCLAVCPEAAISILGFSPDGSTPLKGNLPETDQLETLIAGRRSVRRYCPENLSPELIDKLITVASCAPTGVNARKVRFTVLDDREKTAHFRDEVMERLVRLLEEEALPESKAYYARFVKVWQKHKIDLVFRDAPHLLIATAPKSLSTPRQDCVIALTTFELYAQACGIGTLWNGIATWAIEEMLPEMRQRLGIPDDHAFGYAMLFGKPAVRYARTVQHHPPEIYRVPLEHHHHHH,not soluble
11,MNYLEGVGSKKGGGGIASESQFNLQRRKEVESLLSKGENVPYTFQDEKDDQVRSNPYIYKNHSGKLVCKLCNTMHMSWSSVERHLGGKKHGLNVLRRGISIEKSSLGREGQTTHDFRQQQKIIEAKQSLKNNGTIPVCKIATVKNPKNGSVGLAIQVNYSSEVKENSVDSDDKAKVPPLIRIVSGLELSDTKQKGKKFLVIAYEPFENIAIELPPNEILFSENNDMDNNNDGVDELNKKCTFWDAISKLYYVQFFFKQAEQEQADV,soluble
12,MGSDKIHHHHHHMYWVSEDNVAGKPGKVLYVILPTIGCYRYRIGKPCYMCSYPAQAPRKTSQERIFGYFLEAIGKIKGKEGRFGIRIFTSGSFFDSSEVRRGTRIKIFQEIAKLDNVFEVVVETRSEIIREEWVRELVEIIEGKWFEVALGLETANDDIADISINKGSTFRDFVRASEIIHKAGAKVKTYLLFKPIFLSEGDAIEEMKRSIELAEPYTDTFSINMTNIQKGTLYEKIWERGEYRTPWLWSVVEVLKWAKRKFPGKRFLSDPVGAGSVRGPHNCGDSRDKPVERAIRKFSTTQDLRYLEVSGDCIEEWKYIVSQGLLDWQLIKSQVSPFSTE,not soluble
13,MSLIGLDLDSAPDLIQSVPAPRLRRQVWLRTASGQRLAYATSWWEASHVDEYLQNRSLPIWASLARLRTELYRDVRGIYYGNSEALQLGFGVDGPFWGRHYLFWHHGQPLTLIYEVFSPYLTKYLGPMQLSSRNGKILEHHHHHH,not soluble
